From patent US9695189B2, “Chemical crosslinkers and compositions thereof” (priority 2013, dated 2017) come the findings set out here.

This data set can be described thus: Cleavage of conjugate in potassium phosphate buffer and rat serum. The format is in vitro ADME. The note with it: potassium phosphate buffer pH 7.4 and rat serum (1:1), 37° C., overnight incubation. On the procedure: A mixture of compound (26) (2.9 mg) in potassium phosphate buffer (1.0 mL, pH 7.4) and rat serum (1.0 mL, Aleken Biologicals) was incubated at 37° C.

“L-glutathione N^2-CBZ-lysine conjugate [Compound 26]”: the “Cleavage (hydrolysis) of conjugate releasing N^2-(carbobenzyloxy)-L-lysine” value is reported as “hydrolysis of compound (26) to yield N^2-(carbobenzyloxy)-L-lysine was observed”.
